± gives the standard deviation of the averaged measurements.
B1: library; a variant is named by its letters at N, in order (parent)
chain: GCUGUCACCGAGAAACUGUGAAGUAUAUCUUAAACCUGGGCACUUAAAAGAUAUAUGGAGUUAGUAGUGCAACCUGCUCGGUCUGAUGAGUCCNNNNNNGGACGAAACAGC

Columns and labels:
cyclic di-GMP [1] = variants of: B1; test: FACS-Seq fitted mean relative fluorescence mCherry/BFP without ligand (log10 relative fluorescence); HEK293T; ligand: cyclic di-GMP (c-di-GMP-II aptamer); higher = higher reporter protein expression; conditions: ligand present: no
In short: (§1)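 Genomic DNA from 6 mCherry/BFP sort bins was PCR-amplified, barcoded and sequenced on MiSeq. The sorted cells were enriched HEK293T libraries, lentivirally transduced with a ribozyme-switch mCherry reporter and an EF1α-BFP marker, incubated with or without ligand for 48 h. Fluorescence derives from a normal fit to the bin counts. The fit was on log10(mCherry/BFP), and means were scaled to five spiked-in control ribozymes.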

cyclic di-GMP [2] = variants of: B1; test: normalized RNA/DNA level without ligand (relative to sTRSVctl = 100) (log10 (% of sTRSVctl)); HEK293T; ligand: cyclic di-GMP (c-di-GMP-II aptamer); higher = less ribozyme self-cleavage, higher mRNA level; conditions: reporter: mCherry (pCS4076), ligand present: no
In short: (§2)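 RNA level was computed as RNA reads over DNA reads divided by a spiked-in non-cleaving sequence or by the top sequences, then scaled and log-transformed. Scaling was ×100 with log10, the top group was 25 sequences, and the threshold was ≥100 DNA reads. The reads came from HEK293T cells transfected at 4 µg per 6-well well with ribozyme switch library plasmids (mCherry, or eGFP in some ligand experiments). Total RNA was extracted with EDTA 72 h after transfection, with any ligand added 1 h before it.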

cyclic di-GMP [3] = variants of: B1; test: FACS-Seq fitted mean relative fluorescence mCherry/BFP with ligand (log10 relative fluorescence); HEK293T; ligand: cyclic di-GMP (c-di-GMP-II aptamer); ligand concentration (+) FACS-Seq: 1 mM; higher = higher reporter protein expression; conditions: ligand present: yes
In short: as §1

cyclic di-GMP [4] = variants of: B1; test: normalized RNA/DNA level with ligand (relative to sTRSVctl = 100) (log10 (% of sTRSVctl)); HEK293T; ligand: cyclic di-GMP (c-di-GMP-II aptamer); ligand concentration (+) RNA-Seq: 1 mM; higher = less ribozyme self-cleavage, higher mRNA level; conditions: reporter: mCherry (pCS4076), ligand present: yes
In short: as §2

Variant: CUAUAA
- FACS-Seq fitted mean (log10) (cyclic di-GMP [1]): -0.473 ± 0.065
- normalized RNA/DNA level without ligand (log10) (cyclic di-GMP [2]): 1.41 ± 0.079
- FACS-Seq fitted mean (log10) (cyclic di-GMP [3]): -0.255 ± 0.021
- normalized RNA/DNA level with ligand (log10) (cyclic di-GMP [4]): 1.6 ± 0.11

Variant: AUGAGA
- FACS-Seq fitted mean (log10) (cyclic di-GMP [1]): -0.299 ± 0.14
- normalized RNA/DNA level without ligand (log10) (cyclic di-GMP [2]): 1.35 ± 0.12
- FACS-Seq fitted mean (log10) (cyclic di-GMP [3]): -0.147 ± 0.0049
- normalized RNA/DNA level with ligand (log10) (cyclic di-GMP [4]): 1.54 ± 0.15

Variant: AUGAGU
- FACS-Seq fitted mean (log10) (cyclic di-GMP [1]): -0.416 ± 0.026
- normalized RNA/DNA level without ligand (log10) (cyclic di-GMP [2]): 1.54 ± 0.019
- FACS-Seq fitted mean (log10) (cyclic di-GMP [3]): -0.0836 ± 0.048
- normalized RNA/DNA level with ligand (log10) (cyclic di-GMP [4]): 1.73 ± 0.14

Variant: CUCGGA
- FACS-Seq fitted mean (log10) (cyclic di-GMP [1]): -0.14 ± 0.19
- normalized RNA/DNA level without ligand (log10) (cyclic di-GMP [2]): 1.58 ± 0.076
- FACS-Seq fitted mean (log10) (cyclic di-GMP [3]): 0.203 ± 0.14
- normalized RNA/DNA level with ligand (log10) (cyclic di-GMP [4]): 1.81 ± 0.14

Variant: AUAUAG
- FACS-Seq fitted mean (log10) (cyclic di-GMP [1]): -0.0556 ± 0.15
- normalized RNA/DNA level without ligand (log10) (cyclic di-GMP [2]): 1.61 ± 0.046
- FACS-Seq fitted mean (log10) (cyclic di-GMP [3]): 0.255 ± 0.02
- normalized RNA/DNA level with ligand (log10) (cyclic di-GMP [4]): 1.74 ± 0.074

Variant: CUAAUG
- FACS-Seq fitted mean (log10) (cyclic di-GMP [1]): -0.485 ± 0.042
- normalized RNA/DNA level without ligand (log10) (cyclic di-GMP [2]): 1.49 ± 0.13
- FACS-Seq fitted mean (log10) (cyclic di-GMP [3]): -0.179 ± 0.011
- normalized RNA/DNA level with ligand (log10) (cyclic di-GMP [4]): 1.7 ± 0.092

Variant: CUAAUU
- FACS-Seq fitted mean (log10) (cyclic di-GMP [1]): -0.314 ± 0.073
- normalized RNA/DNA level without ligand (log10) (cyclic di-GMP [2]): 1.537 ± 0.0049
- FACS-Seq fitted mean (log10) (cyclic di-GMP [3]): 0.0103 ± 0.0086
- normalized RNA/DNA level with ligand (log10) (cyclic di-GMP [4]): 1.74 ± 0.081

Variant: CUAAUA
- FACS-Seq fitted mean (log10) (cyclic di-GMP [1]): -0.533 ± 0.025
- normalized RNA/DNA level without ligand (log10) (cyclic di-GMP [2]): 1.39 ± 0.066
- FACS-Seq fitted mean (log10) (cyclic di-GMP [3]): -0.316 ± 0.011
- normalized RNA/DNA level with ligand (log10) (cyclic di-GMP [4]): 1.6 ± 0.12

Variant: AGUUUA
- FACS-Seq fitted mean (log10) (cyclic di-GMP [1]): -0.489 ± 0.04
- normalized RNA/DNA level without ligand (log10) (cyclic di-GMP [2]): 1.53 ± 0.068
- FACS-Seq fitted mean (log10) (cyclic di-GMP [3]): -0.25 ± 0.013
- normalized RNA/DNA level with ligand (log10) (cyclic di-GMP [4]): 1.72 ± 0.12

Variant: UUGGAA
- FACS-Seq fitted mean (log10) (cyclic di-GMP [1]): -0.145 ± 0.025
- normalized RNA/DNA level without ligand (log10) (cyclic di-GMP [2]): 1.61 ± 0.12
- FACS-Seq fitted mean (log10) (cyclic di-GMP [3]): 0.122 ± 0.11
- normalized RNA/DNA level with ligand (log10) (cyclic di-GMP [4]): 1.78 ± 0.081

Variant: CUGCGG
- FACS-Seq fitted mean (log10) (cyclic di-GMP [1]): 0.154 ± 0.06
- normalized RNA/DNA level without ligand (log10) (cyclic di-GMP [2]): 1.82 ± 0.042
- FACS-Seq fitted mean (log10) (cyclic di-GMP [3]): 0.241 ± 0.03
- normalized RNA/DNA level with ligand (log10) (cyclic di-GMP [4]): 1.84 ± 0.087

Variant: CUGCGA
- FACS-Seq fitted mean (log10) (cyclic di-GMP [1]): -0.33 ± 0.01
- normalized RNA/DNA level without ligand (log10) (cyclic di-GMP [2]): 1.65 ± 0.024
- FACS-Seq fitted mean (log10) (cyclic di-GMP [3]): 0.0519 ± 0.0084
- normalized RNA/DNA level with ligand (log10) (cyclic di-GMP [4]): 1.8 ± 0.095

Variant: CUGGAA
- FACS-Seq fitted mean (log10) (cyclic di-GMP [1]): -0.647 ± 0.051
- normalized RNA/DNA level without ligand (log10) (cyclic di-GMP [2]): 1.26 ± 0.1
- FACS-Seq fitted mean (log10) (cyclic di-GMP [3]): -0.397 ± 0.011
- normalized RNA/DNA level with ligand (log10) (cyclic di-GMP [4]): 1.41 ± 0.06

Variant: UUCGUG
- FACS-Seq fitted mean (log10) (cyclic di-GMP [1]): -0.959 ± 0.031
- normalized RNA/DNA level without ligand (log10) (cyclic di-GMP [2]): 1.71 ± 0.022
- FACS-Seq fitted mean (log10) (cyclic di-GMP [3]): -0.86 ± 0.094
- normalized RNA/DNA level with ligand (log10) (cyclic di-GMP [4]): 1.86 ± 0.1

Variant: GUCACU
- FACS-Seq fitted mean (log10) (cyclic di-GMP [1]): -0.159 ± 0.13
- normalized RNA/DNA level without ligand (log10) (cyclic di-GMP [2]): 1.708 ± 0.0022
- FACS-Seq fitted mean (log10) (cyclic di-GMP [3]): 0.131 ± 0.035
- normalized RNA/DNA level with ligand (log10) (cyclic di-GMP [4]): 1.85 ± 0.08

Variant: GUCACG
- FACS-Seq fitted mean (log10) (cyclic di-GMP [1]): -0.35 ± 0.017
- normalized RNA/DNA level without ligand (log10) (cyclic di-GMP [2]): 1.64 ± 0.028
- FACS-Seq fitted mean (log10) (cyclic di-GMP [3]): -0.131 ± 0.21
- normalized RNA/DNA level with ligand (log10) (cyclic di-GMP [4]): 1.84 ± 0.085

Variant: AUCCUG
- FACS-Seq fitted mean (log10) (cyclic di-GMP [1]): -0.263 ± 0.061
- normalized RNA/DNA level without ligand (log10) (cyclic di-GMP [2]): 1.67 ± 0.017
- FACS-Seq fitted mean (log10) (cyclic di-GMP [3]): -0.151 ± 0.016
- normalized RNA/DNA level with ligand (log10) (cyclic di-GMP [4]): 1.78 ± 0.13

Variant: CUGAGU
- FACS-Seq fitted mean (log10) (cyclic di-GMP [1]): -0.459 ± 0.047
- normalized RNA/DNA level without ligand (log10) (cyclic di-GMP [2]): 1.7 ± 0.022
- FACS-Seq fitted mean (log10) (cyclic di-GMP [3]): -0.264 ± 0.00087
- normalized RNA/DNA level with ligand (log10) (cyclic di-GMP [4]): 1.83 ± 0.12

Reference: the supplement of paper PMC6757056
